Non-standard residues stand in square brackets, D forms with d. No end group written: not given here. pT = C[C@@H](OP(=O)(O)O)[C@H](N)C(=O)O
Columns and labels:
SUMO2 [1] = biological target: SUMO2 (UniProt P61956); assay: NMR titration
SUMO1 = SUMO1 (UniProt P63165); assay: NMR titration
SUMO2 [2] = biological target: SUMO2 (UniProt P61956)
[3] = biological target: Chk2-FHA domain (aa:64-212) (UniProt O96017 64-212); assay: ITC
Chk2-FHA domain (aa:64-212), sequence (O96017 64-212): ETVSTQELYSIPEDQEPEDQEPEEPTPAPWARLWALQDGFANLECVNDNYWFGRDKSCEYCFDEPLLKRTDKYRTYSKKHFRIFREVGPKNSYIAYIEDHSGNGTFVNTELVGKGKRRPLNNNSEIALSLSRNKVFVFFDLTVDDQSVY

SUMO1, sequence (P63165 1-97): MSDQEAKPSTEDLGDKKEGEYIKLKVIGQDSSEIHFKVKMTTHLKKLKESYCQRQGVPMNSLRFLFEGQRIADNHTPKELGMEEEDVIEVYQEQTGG

Molecule	Kd (SUMO2 [1])	Kd (SUMO1)	also measured
pSLS4 peptide of ICP0 (SLS4 phosphorylated at Ser365)	7 µM	16 µM	–
ppSLS4 peptide of ICP0 (SLS4 phosphorylated at Ser365 and Ser367)	3 µM	5 µM	–
ICP0pm (phosphomimetic full-length ICP0, Ser365 and Ser367 mutated to aspartic acids) (from UniProt P08393 1-775) (enzyme)	–	–	STUbL activity on SUMOylated FLAG-PMLs, against ICP0 (fold (against ICP0)) (SUMO2 [2]): 5
SLS4 peptide of ICP0	81 µM	128 µM	–
DDDSASEADSTD[pT]ELFETGL [ICP0-FBM peptide, phosphorylated at Thr67 (FHA Binding Motif, aa: 55-74)]	–	–	Kd [3]: 0.75 ± 0.05 µM; dH [3]: -5.8 ± 0.1 kcal/mol; stoichiometry N [3]: 1.23
